Laboratory results: US20240059769A1 (BIOLOJIC DESIGN, published 2024)
Positions count from the first letter of the chain named.

B1: BDG38.125 (antibody, V domains shown)
VH: QMQLVESGGGVVQPGRSLRLSCAASGFEFRTYGMHWVRQAPGKGLEWVAVIWDDGSNTHYADSVKGRFTITRDNSKNTLNLQMNSLRAEDTAVYYCVRAPQWYLTAEAFDLWGQGTMVTVSS
VL: SYVLTQPPSVSVAPGETATITCGGNLIGARLVHWYQQKPGQAPVLVIYDDSDRPSRIPERFSGSNIGNTATLTIERVEEGDEADYYCQVWDYSSDHMVFGGGTKLTVL
notes: IgG1
B2: BDG38.117 (antibody, V domains shown)
VH: B1 VH with R19T, A49G, V97A
VL: B1 VL with R30K, R76D, E79A, H96T
notes: IgG1
B3: BDG38.131 (antibody, V domains shown)
VH: B1 VH with R19T
VL: B1 VL with V3I, R30K, E75S, R76D, S93Y, D95N, H96T
notes: IgG1
B4: BDG38.106 (antibody, V domains shown)
VH: B1 VH with R19T, H59V, A88V
VL: B1 VL with V3I, E16Q, A29S, R76D, Y92H, S93Y
notes: IgG1
B5: BDG38.128 (antibody, V domains shown)
VH: B1 VH with R19T, A88V
VL: B1 VL with V3I, R30K, I66S, E75S, R76D, S93Y, S94A, H96T
notes: IgG1
B6: BDG38.134 (antibody, V domains shown)
VH: B1 VH with R16Q, V48L, D53Y, L104N, T105S
VL: B1 VL with E16Q, T19R, R56H, I66S, E75S, E79A, S94A, H96T
notes: IgG1
B7: BDG38.118 (antibody, V domains shown)
VH: B1 VH with A49G, D53Y, N57A, A88V
VL: B1 VL with V3I, E75S, R76D, M97Y
notes: IgG1
B8: BDG38.127 (antibody, V domains shown)
VH: B1 VH with R19T, A49G, D53Y, N57A, V97A
VL: B1 VL with V3I, R30K, E75S, R76D, E79A, S93Y, H96T, M97Y
notes: IgG1
B9: BDG38.091 (antibody, V domains shown)
VH: B1 VH with R19T, V48L, A49G, D53Y, A88V
VL: B1 VL with V3I, A29S, E75S, R76D, E79A, Y92H, S93Y, D95N, M97Y
notes: IgG1
B10: BDG38.110 (antibody, V domains shown)
VH: B1 VH
VL: B1 VL with V3I, A18T, T19R, R30K, R76D, E79A, D95N
notes: IgG1
B11: BDG38.115 (antibody, V domains shown)
VH: B1 VH with R19T, V48L, A49G, D53Y
VL: B1 VL with V3I, E16Q, I66S, E75S, R76D, D95N, H96T, M97Y
notes: IgG1
B12: BDG38.107 (antibody, V domains shown)
VH: B1 VH with R19T, A49G, D53Y
VL: B1 VL with V3I, E16Q, H96S, M97Y
notes: IgG1
B13: BDG38.098 (antibody, V domains shown)
VH: B1 VH with R19T, H59V, A88V
VL: B1 VL with E16Q, E75S, E79A, H96S
notes: IgG1
B14: BDG38.120 (antibody, V domains shown)
VH: B1 VH
VL: B1 VL with V3I, I66S, E75S, R76D, E79A
B15: BDG38.086 (antibody, V domains shown)
VH: B1 VH with A49G, D53Y
VL: B1 VL with E16Q, T19R, I47V, E75S, R76D, D95N, H96T, M97Y
B16: BDG38.141 (antibody, V domains shown)
VH: B1 VH
VL: B1 VL with V3I, N25A, A29S, E75S, R76D, S93Y, D95N
B17: BDG38.123 (antibody, V domains shown)
VH: B1 VH
VL: B1 VL with V3I, E75S, R76D, E79A, H96T, M97Y
B18: BDG38.136 (antibody, V domains shown)
VH: B1 VH with V48L, D53Y, L104N, T105S
VL: B1 VL with E16Q, T19R, R30K, R56H, I66S, E75S, E79A, H96T
B19: BDG38.143 (antibody, V domains shown)
VH: B1 VH with A49G, N57A, A88V
VL: B1 VL with V3I, E16Q, N25A, E75S, D95N, H96T, M97Y
B20: BDG38.122 (antibody, V domains shown)
VH: B1 VH
VL: B1 VL with V3I, E75S, H96S, M97Y
B21: BDG38.130 (antibody, V domains shown)
VH: B1 VH with R19T, E28A, A88V
VL: B1 VL with V3I, E79A, D95N, H96S, M97Y
B22: BDG38.142 (antibody, V domains shown)
VH: B1 VH with R19T
VL: B1 VL with V3I, E16Q, R30K, I47V, S93Y, D95H, H96T
B23: BDG38.124 (antibody, V domains shown)
VH: B1 VH with A49G
VL: B1 VL with V3I, E75S, R76D, E79A, H96T, M97Y
B24: BDG38.133 (antibody, V domains shown)
VH: B1 VH
VL: B1 VL with V3I, E75S, E79A, H96T, M97Y

What follows are binders tested against T1, recombinant human IL-13 (human, UniProt P35225 35-146) (assay: cell-based or functional assay).
T1 sequence (P35225 35-146 limits assumed): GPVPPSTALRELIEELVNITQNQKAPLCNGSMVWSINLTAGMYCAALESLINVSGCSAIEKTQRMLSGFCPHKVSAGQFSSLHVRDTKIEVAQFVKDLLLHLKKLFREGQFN

Binder	IC50 CD23
B1	0.0527 nM
B2	0.121 nM
B3	0.07 nM
B4	0.162 nM
B5	0.0149 nM

The binders below were run against T2, human TSLP (human, UniProt Q969D9 29-159) (assay: SPR).
T2 construct: also called hTSLP; rhTSLP

Binder	Kd	koff	kon
B6	8.58 pM	4.17e-05 s⁻¹	4.86e+06 M⁻¹ s⁻¹
B1	25.5 pM	0.000121 s⁻¹	4.76e+06 M⁻¹ s⁻¹
B7	964 pM	0.00043 s⁻¹	446000 M⁻¹ s⁻¹
B3	0.0746 pM	2.85e-07 s⁻¹	3.82e+06 M⁻¹ s⁻¹
B8	991 pM	0.000427 s⁻¹	431000 M⁻¹ s⁻¹
B5	9.07 pM	3.86e-05 s⁻¹	4.25e+06 M⁻¹ s⁻¹

The binders below were run against T1, recombinant human IL-13 (assay: SPR).

Binder	Kd	koff	kon
B6	0.507 nM	0.00156 s⁻¹	3.07e+06 M⁻¹ s⁻¹
B1	0.00778 nM	4.76e-05 s⁻¹	6.12e+06 M⁻¹ s⁻¹
B7	0.0157 nM	6.7e-05 s⁻¹	4.27e+06 M⁻¹ s⁻¹
B3	0.179 nM	0.000356 s⁻¹	2e+06 M⁻¹ s⁻¹
B8	0.00847 nM	5.01e-05 s⁻¹	5.91e+06 M⁻¹ s⁻¹
B5	0.0321 nM	0.000176 s⁻¹	5.49e+06 M⁻¹ s⁻¹

Biological target: T2, human TSLP
Assay: SPR
Remark: another data set of the same source

Binder	Kd	koff	kon
B9	0.0621 nM	8.67e-05 s⁻¹	1.4e+06 M⁻¹ s⁻¹
B10	0.129 nM	0.000298 s⁻¹	2.31e+06 M⁻¹ s⁻¹
B2	0.00382 nM	2.7e-05 s⁻¹	7.07e+06 M⁻¹ s⁻¹
B11	0.84 nM	0.000532 s⁻¹	634000 M⁻¹ s⁻¹
B4	0.0525 nM	0.000257 s⁻¹	4.9e+06 M⁻¹ s⁻¹
B12	0.151 nM	8.16e-05 s⁻¹	541000 M⁻¹ s⁻¹
B13	0.0275 nM	0.000237 s⁻¹	8.6e+06 M⁻¹ s⁻¹

Biological target: T1, recombinant human IL-13
Assay: SPR
Remark: another data set of the same source

Binder	Kd	koff	kon
B9	0.0604 nM	0.000216 s⁻¹	3.57e+06 M⁻¹ s⁻¹
B10	0.0742 nM	0.000427 s⁻¹	5.75e+06 M⁻¹ s⁻¹
B2	0.0149 nM	0.000103 s⁻¹	6.94e+06 M⁻¹ s⁻¹
B11	0.125 nM	0.000455 s⁻¹	3.63e+06 M⁻¹ s⁻¹
B4	0.0346 nM	0.000205 s⁻¹	5.93e+06 M⁻¹ s⁻¹
B12	0.00274 nM	2.02e-05 s⁻¹	7.36e+06 M⁻¹ s⁻¹
B13	0.0239 nM	0.000138 s⁻¹	5.8e+06 M⁻¹ s⁻¹

The binders below were run against T3, cynomolgus monkey (cyno) TSLP (cynomolgus monkey, UniProt A0A7N9CAT7 29-159) (assay: SPR).
T3 construct: also called cTSLP; cynomolgus TSLP
T3 sequence (A0A7N9CAT7 entry or part of it): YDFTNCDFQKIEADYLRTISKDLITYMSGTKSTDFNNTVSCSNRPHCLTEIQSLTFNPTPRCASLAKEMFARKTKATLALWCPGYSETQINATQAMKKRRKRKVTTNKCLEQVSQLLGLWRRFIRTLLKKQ

Binder	Kd	koff	kon
B1	45.2 pM	0.000119 s⁻¹	2.64e+06 M⁻¹ s⁻¹
B2	8.9 pM	0.000452 s⁻¹	5.08e+07 M⁻¹ s⁻¹
B5	0.0492 pM	7.62e-08 s⁻¹	1.55e+06 M⁻¹ s⁻¹

The binders below were run against T4, hTSLP-His (human, UniProt Q969D9 29-159, limits assumed) (assay: cell-based or functional assay).

Binder	IC50 [pM], STAT5 phosphorylation inhibition in MUTZ5 cells
B9	0.507 pM
B6	32 pM
B14	0.232 pM
B15	830 pM
B10	0.295 pM
B2	0.363 pM
B7	0.688 pM
B11	300 pM
B8	0.143 pM
B5	0.0048 pM
B12	0.508 pM
B13	68.8 pM

These binders were tested against T4, hTSLP-His (assay: competition ELISA, 7 nM TSLP-His pre-incubated with antibody; competitor Tezepelumab coated).

Binder	IC50
B1	8.44 nM
B2	6.14 nM
B4	10.1 nM
B5	5.38 nM

What follows are binders tested against T5, recombinant cynomolgus monkey IL-13 (cynomolgus monkey, UniProt Q0PW92 21-132) (assay: SPR).
T5 construct: bought; also called rc-IL-13; cIL-13
T5 sequence (Q0PW92 entry or part of it): as the sequence (P35225 35-146 limits assumed) above, with G1S, R10K, M42V, S67N, H83R, L100V counted along it

Binder	Kd	koff	kon
B1	0.0389 nM	0.00135 s⁻¹	3.46e+07 M⁻¹ s⁻¹
B2	0.0367 nM	0.00144 s⁻¹	3.94e+07 M⁻¹ s⁻¹
B5	0.102 nM	0.00309 s⁻¹	3.02e+07 M⁻¹ s⁻¹

Biological target: T1, recombinant human IL-13
Assay: cell-based or functional assay
Remark: another data set of the same source

Binder	HEK-IL-13 [nM] (IC50, STAT6 reporter)
B9	0.0832 nM
B16	0.0824 nM
B6	0.271 nM
B17	0.044 nM
B18	0.151 nM
B19	0.0438 nM
B1	0.0562 nM
B14	0.265 nM
B20	0.079 nM
B21	0.0646 nM
B22	0.0584 nM
B15	0.0174 nM
B23	0.0523 nM
B24	0.029 nM
B10	0.0299 nM
B2	0.0801 nM
B7	0.0804 nM
B3	0.0443 nM
B11	0.0664 nM
B4	0.0113 nM
B8	0.044 nM
B5	0.0523 nM
B12	0.0943 nM
B13	0.0884 nM
